# Article PMC4364632, “Engineering a fungal peroxidase that degrades lignin at very acidic pH” (Biotechnology for Biofuels, 2014)
# Where a chain is given by its changes, count along the chain named. Numbers in names are those of the source.
# B1: LiP-H8 (Phanerodontia chrysosporium) (protein)
# chain: ATCSNGKTVGDASCCAWFDVLDDIQQNLFHGGQCGAEAHESIRLVFHDSIAISPAMEAQGKFGGGGADGSIMIFDDIETAFHPNIGLDEIVKLQKPFVQKHGVTPGDFIAFAGRVALSNCPGAPQMNFFTGRAPATQPAPDGLVPEPFHTVDQIINRVNDAGEFDELELVWMLSAHSVAAVNDVDPTVQGLPFDSTPGIFDSQFFVETQLRGTAFPGSGGNQGEVESPLPGEIRIQSDHTIARDSRTACEWQSFVNNQSKLVDDFQFIFLALTQLGQDPNAMTDCSDVIPQSKPIPGNLPFSFFPAGKTIKDVEQACAETPFPTLTTLPGPETSVQRIPPPPGA
# B2: MnP6 (Gelatoporia subvermispora B; S171W/S189W) (protein)
# chain: APTAVCSDGTRVSNAVCCDFVSLGQDLQSMVLQGDCGEDAHEIIRLTFHDAVAISRKLGPSAGGGADGSMLLFPLVEPEFAASNGIDDSVNNLIPFLSLHPTISAGDLVQFAGAVALSNCPGAPRVQFLAGRPNHTIAAIDGLIPEPQDNVTWILERFDDAGGFTPFEVVWLLASHTIARADKVDPTLDAAPFDTTPFTFDSQIFLEVLLKGVGFPGLDNNTGEVSSPLPLGDTSTGGKDTGLMRLQSDFALAHDPRTACFWQGFVDQQEFMSQSFASAFAKLAVLGHNTDDLIDCSEVVPVPKPAVDKPTTFPATTGPQDLELSCLAERFPTLSVDPGAQETLIPHCSDGLENCTSVQFSGPATDSP
# notes: mature protein, signal peptide removed, untagged in pET23a; S168W and S168W-environment variants
# B3: MnP6 (Gelatoporia subvermispora B; F279E/F283M/F289K/Q292N/S171W/S189W/S293R/S296G/T183S) (protein)
# chain: B2 chain with T165S, F261E, F265M, F271K, Q274N, S275R, S278G
# notes: as for B2
# Key:
# VP1 [1] = tested on: T1, VP1; experiment: veratraldehyde formation at […] nm, steady-state kinetics; format: biochemical, Pleurotus ostreatus; conditions: 0.1 mM H2O2, 0.1 M tartrate pH 3.0, 25°C
# T1 construct: mature protein, signal peptide removed, untagged in pET23a
# VP1 [2] = tested on: T1, VP1; experiment: RB5 disappearance at […] nm, steady-state kinetics; format: biochemical, Pleurotus ostreatus; conditions: 0.1 mM H2O2, 0.1 M tartrate pH 3.5, 25°C
# VP1 [3] = tested on: T1, VP1; experiment: ABTS cation radical formation at […] nm, steady-state kinetics; format: biochemical, Pleurotus ostreatus; conditions: 0.1 mM H2O2, 0.1 M tartrate pH 3.5, 25°C; biphasic, high-efficiency site (catalytic Trp)
# VP1 [4] = tested on: T1, VP1; experiment: dimeric coerulignone formation at […] nm, steady-state kinetics; format: biochemical, Pleurotus ostreatus; conditions: 0.1 mM H2O2, 0.1 M tartrate pH 3.5, 25°C; biphasic, high-efficiency site (catalytic Trp)
# purified protein [5] = substrate: CCn1c(=NN=c2sc3cc(S(=O)(=O)O)ccc3n2CC)sc2cc(S(=O)(=O)O)ccc21; experiment: purified protein; format: biochemical, Phanerodontia chrysosporium; conditions: 0.1 mM H2O2, 0.1 M tartrate pH 3.5, 25°C
# purified protein [6] = substrate: COc1ccc(CO)cc1OC; experiment: purified protein; format: biochemical, Phanerodontia chrysosporium; conditions: 0.1 mM H2O2, 0.1 M tartrate pH 3.0, 25°C
# purified protein [7] = substrate: COc1cccc(OC)c1O; experiment: purified protein; format: biochemical, Phanerodontia chrysosporium; conditions: 0.1 mM H2O2, 0.1 M tartrate pH 3.5, 25°C
# purified protein [8] = substrate: CCn1c(=NN=c2sc3cc(S(=O)(=O)O)ccc3n2CC)sc2cc(S(=O)(=O)O)ccc21; experiment: purified protein; format: biochemical, Gelatoporia subvermispora; conditions: 0.1 mM H2O2, 0.1 M tartrate pH 3.5, 25°C
# purified protein [9] = substrate: COc1ccc(CO)cc1OC; experiment: purified protein; format: biochemical, Gelatoporia subvermispora; conditions: 0.1 mM H2O2, 0.1 M tartrate pH 3.0, 25°C
# purified protein [10] = substrate: COc1ccccc1OC(CO)C(O)c1cc(OC)c(OC)c(OC)c1; experiment: purified protein; format: biochemical, Gelatoporia subvermispora; conditions: 0.1 mM H2O2, 100 mM BR buffer pH 3.0, 25°C, unit doubtful: printed kcat/Km (s^-1.mM^-1) implies mM
# purified protein [11] = substrate: Nc1c(N=Nc2ccc(S(=O)(=O)CCOS(=O)(=O)O)cc2)c(S(=O)(=O)O)cc2cc(S(=O)(=O)O)c(N=Nc3ccc(S(=O)(=O)CCOS(=O)(=O)O)cc3)c(O)c12; experiment: purified protein; format: biochemical, Gelatoporia subvermispora; conditions: 0.1 mM H2O2, 0.1 M tartrate pH 3.5, 25°C
molecule,measurement,setting,value
COc1ccc(CO)cc1OC [veratryl alcohol],Km,VP1 [1],5500 ± 46 µM
Nc1c(N=Nc2ccc(S(=O)(=O)CCOS(=O)(=O)O)cc2)c(S(=O)(=O)O)cc2cc(S(=O)(=O)O)c(N=Nc3ccc(S(=O)(=O)CCOS(=O)(=O)O)cc3)c(O)c12 [Reactive Black 5],Km,VP1 [2],5.4 ± 0.2 µM
"CCn1c(=NN=c2sc3cc(S(=O)(=O)O)ccc3n2CC)sc2cc(S(=O)(=O)O)ccc21 [2,2'-azino-bis(3-ethylbenzothiazoline-6-sulfonate)]",Km,VP1 [3],4 ± 0.4 µM
"COc1cccc(OC)c1O [2,6-dimethoxyphenol]",Km,VP1 [4],54 ± 4 µM
B1,Km,purified protein [5],23.0 ± 1.6 µM
same,kcat,purified protein [5],13 ± 0.2 s⁻¹
same,kcat/Km,purified protein [5],563000 ± 36000 M⁻¹ s⁻¹
same,Km,purified protein [6],190 ± 17 µM
same,kcat,purified protein [6],17.5 ± 0.5 s⁻¹
same,kcat/Km,purified protein [6],92000 ± 6000 M⁻¹ s⁻¹
same,Km,purified protein [7],5.8 ± 0.5 µM
same,kcat,purified protein [7],10 ± 0.1 s⁻¹
same,kcat/Km,purified protein [7],1.72e+06 ± 153000 M⁻¹ s⁻¹
B2,Km,purified protein [8],60.2 ± 13.4 µM
same,kcat,purified protein [8],1.4 ± 0.1 s⁻¹
same,kcat/Km,purified protein [8],23000 ± 3000 M⁻¹ s⁻¹
same,Km,purified protein [9],2740 ± 560 µM
same,kcat,purified protein [9],0.54 ± 0.04 s⁻¹
same,kcat/Km,purified protein [9],197 M⁻¹ s⁻¹
same,Km,purified protein [10],0.0049 ± 0.0013 mM
same,Km,purified protein [11],12.6 ± 3 µM
same,kcat,purified protein [11],7.8 ± 1.1 s⁻¹
same,kcat/Km,purified protein [11],619000 ± 27000 M⁻¹ s⁻¹
B3,Km,purified protein [9],21600 ± 200 µM
same,kcat,purified protein [9],1.69 ± 0.04 s⁻¹
same,kcat/Km,purified protein [9],78 M⁻¹ s⁻¹
same,Km,purified protein [11],5.4 ± 3 µM
same,kcat,purified protein [11],7 ± 1.1 s⁻¹
same,kcat/Km,purified protein [11],1.31e+06 ± 100000 M⁻¹ s⁻¹
